From patent publication US20250326860A1 come the findings set out here.

Usually EC50 stands for the concentration that produces a half-maximal response.

Where only a bound is given, the exact number is not on record here.

Experiment [1] addresses human CD3 on cells (Jurkat cells, human T cells) (human) (UniProt P07766). The experiment is described as follows: binding to human CD8+ T cells.
Experiment [2] shares this target. Description: binding to human CD4+ T cells.
Experiment [3] addresses human CD20 on cells (human B cells; Raji, SU-DHL-8, SU-DHL-4, A3KAW, NAMALWA) (human) (UniProt P11836). Description: flow cytometry, human B cells. (In general: In flow cytometry, cells or beads pass a laser one at a time.)
Experiment [4] shares this target. Description: binding to Raji cells.
For experiment [5], the target named is cynomolgus monkey CD20 on B cells (cynomolgus monkey) (UniProt M4ZHZ6). The experiment is described as follows: flow cytometry, monkey B cells.
Experiment [6] deals with human CD20 on cells (human B cells; Raji, SU-DHL-8, SU-DHL-4, A3KAW, NAMALWA) (human) (UniProt P11836). Description: binding to human B cells.
human CD20 on cells (human B cells; Raji, SU-DHL-8, SU-DHL-4, A3KAW, NAMALWA) (human), sequence (P11836 whole entry): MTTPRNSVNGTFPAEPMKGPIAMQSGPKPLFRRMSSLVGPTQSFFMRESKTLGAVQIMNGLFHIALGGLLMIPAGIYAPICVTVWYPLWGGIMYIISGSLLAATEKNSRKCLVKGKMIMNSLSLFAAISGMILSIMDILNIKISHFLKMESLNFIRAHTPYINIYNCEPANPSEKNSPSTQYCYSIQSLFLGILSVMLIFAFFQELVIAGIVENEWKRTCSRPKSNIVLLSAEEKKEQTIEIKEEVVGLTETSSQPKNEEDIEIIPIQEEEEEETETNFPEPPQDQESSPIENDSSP
Another experiment concerns the target human CD3δε (human) (UniProt P07766). The experiment is described as follows: binding to CD3δ/ε protein dimer.
For experiment [7], the target named is human CD3 on cells (Jurkat cells, human T cells) (human) (UniProt P07766). The experiment is described as follows: binding to human CD3+ T cells.
human CD3 on cells (Jurkat cells, human T cells) (human), sequence (P07766 23-207): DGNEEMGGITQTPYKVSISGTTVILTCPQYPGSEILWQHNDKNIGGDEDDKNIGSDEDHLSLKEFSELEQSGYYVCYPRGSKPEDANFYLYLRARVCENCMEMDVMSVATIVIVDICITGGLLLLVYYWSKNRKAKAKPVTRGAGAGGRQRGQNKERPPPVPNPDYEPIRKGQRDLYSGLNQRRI

As for IgG1 isotype control antibody, the EC50 is more than 2000 nM in experiment [1], more than 2000 nM in experiment [2] and more than 8000 nM in experiment [4]. In addition, the figures for the max MFI in experiment [3] and in experiment [5] were 1650 MFI and 60.4 MFI, respectively.

In the case of Plamotamab analog (bispecific antibody), the concentration for a half-maximal effect (EC50) in experiment [6] stood at 200 nM; in experiment [1], 10.1 nM; in experiment [2] it was 13.1 nM; with human CD3δε (human), 2.1 nM; in experiment [7], 11.8 nM; in experiment [4], 135 nM.
